The text below walks through data of publication PMC9539438.

Values joined by “and” are separate entries in the source; they are usually repeats but may differ in a detail not shown here. Equal values may be shown once.

Assay [1] deals with P66 with a c-Myc epitope tag inserted C-terminally to D303 (Borrelia burgdorferi).
Assay [2] shares this target. The assay can be described thus: native gel or EMSA; Blue native PAGE (4-16% Bis-Tris) of membrane B-fractions solubilised in 1.25% digitonin; immunoblot with anti-P66 or anti-c-Myc. (In EMSA bound probe runs differently from free probe, usually more slowly.)
In assay [3] the target is P66 with a c-Myc epitope tag inserted C-terminally to E33 (Borrelia burgdorferi).
The target is the same in assay [4]. The assay can be described thus: native gel or EMSA; Blue native PAGE (4-16% Bis-Tris) of membrane B-fractions solubilised in 1.25% digitonin; immunoblot with anti-P66 or anti-c-Myc.

As a reminder, the stoichiometry N is a count of units in the complex or per binding partner. Substance “P66 with a c-Myc epitope tag inserted C-terminally to D303 (natural protein)” registered a single-channel conductance of the outer membrane fraction in black lipid bilayers (1 M KCl, 20 mV) in assay [1] of less than 4 nS. Also, in assay [2], the stoichiometry N was 3 and 5.
Turning to “P66 with a c-Myc epitope tag inserted C-terminally to E33 (natural protein)”, the single-channel conductance of the outer membrane fraction in black lipid bilayers (1 M KCl, 20 mV) in assay [3] is less than 4 nS. Also, the stoichiometry N in assay [4] is 3.
